Results: the DeepSol protein solubility set

Assay: soluble on expression in E. coli; label from the status in PepcDB or PDB records

Sequence | soluble on expression in E. coli
MQHLDLQVVRKALKWSVGGERVWFCTVLTTYGSAPRAPGSLLAVNASGEWIGSLSGGCVEDDFLERVAAGGFPDPAVIVRYGEGDDPNSNIRLPCGGILDVLVENLAPDCDVQAHLRELESALLGQRRLLREVELGSGARSLRDDSSHGPRAERDGECVRLRVGAAQRLLLAGYSSVAHACAEFGKGLGFEVILCDPREEALRGVVLEGIEIRRELPSLFIADGGCHADTAVVALTHDPKIDDLAMLEAVRTEAFYIGVMGSRATSEKRFERLRRIGGLGDAELARIHAPIGLNLGSKTPAEIALAVLADILRIRNGIPRERL | not soluble
MQHPTTKYVKLSFALIFLFNIASASIFSDDVTEATSSPDTTTTAVAIRAKRQCGGMGGCCGGMSGCGCGSMGMCGQTCCPSAPPPCSCGTPGCMQCVQQTVLVPVTTTTCCKCCQPVCTNACTNGGGCSCGCTRGGCSRKRRSLLAIASEEMSKRGDVMV | not soluble
MQHYLHIRPAPSDNLPLVDLIEHPDPIFDPKEKDLNETLLRSLLGGHYDPGFMATSPPEDRPGGGGGAAGGAEDLAELDQLLRQRPSGAMPSEIKGLEFSEGLAQGKKQRLSKKLRRKLQMWLWSQTFCPVLYAWNDLGSRFWPRYVKVGSCFSKRSCSVPEGMVCKPSKSVHLTVLRWRCQRRGGQRCGWIPIQYPIISECKCSC | soluble
MQINKDELIKMGNHLKEARLSKQLTQEELARLSNISQATIVKYENGLRSISKKNDRILSDVLGAESFIKDMIQRKQQVLIDLEKYQTKNIFSREDLSKKLGIEISLLNKFLNQSRPLSKNAIVKITQLLSNEGKEILMDIKQEDGSFKLPIIDKIAMGKRIQEIRKNRGETLEKFGKNFTRPAGKNVVNRWEKGTNIPDIERLMNVAYLGKVAVPYILYGETFSKMLKKGSRISKFEKLDSFRMGLRLRKIRRDYRLEREDFGKFFSPPITKWSMDKYENGKDIPNTDRIIQYAYIGKVSLNFLIYGVN | not soluble
MQIQKSFKGQSPYGKLYLVATPIGNLDDMTFRAIQTLKEVDWIAAEDTRNTGLLLKHFDISTKQISFHEHNAKEKIPDLIGFLKAGQSIAQVSDAGLPSISDPGHDLVKAAIEEEIAVVTVPGASAGISALIASGLAPQPHIFYGFLPRKSGQQKQFFGLKKDYPETQIFYESPHRVADTLENMLEVYGDRSVVLVRELTKIYEEYQRGTISELLESIAETPLKGECLLIVEGASQGVEEKDEEDLFVEIQTRIQQGVKKNQAIKEVAKIYQWNKSQLYAAYHDWEEKQ | not soluble
MQKLPHSLFFGPAGCGKTTFARVVAKDFGLDFYEFDGGNFKLEDLRKIIENYKNSLYKPLIFIDEIHRLSKTQQEMLLIPMENYRCIVIGASTENPYFVLSSGIRSRSMLFEFKNLGQKDLELLLERVQQKIAFKIEDNAKEFLLKSFDARAMLNLLEFALVLNEKEITLENLKKLRNGVNSEGVSSKDTHYILASALIKSLRGSDVDAAIYYLARLIDAGESADFIARRLIIFASEDISNADPNALNLAVSTLTAVKNIGYPEARIILSQCAVYLASAPKSNSSYNAINKALDYVKNNPALEIPNYLNNNHPEKKNYLYPHNFGGWVKQNYLSANLKFYESKGIGEEARLLENLSKLKNIKS | soluble
MQKVRSDIMTHRGSHYDLGVKTALWLQTTPLLKNRNKEWRKRIPRFDIDVKETYDIFQIYSPQIWEEIIGMQDVLNLPTKQMILNFGHYRFTDLKDSGCTVYKGRDFLVRNYDYHPATYDGRYLLFQPNDGGLSQIGPTSRVTGRMDGMNEYGLVMAYNFMHRKKPANGFVCYMVGRLILENCKNVTEAIKFLKEVPHRSSFSYILMDRHSNYAIVEVTPRSIDVRYEHICTNHFELLTHENRNYTRESKERLNRVINKTTPSTNKDIAFKLFNDPQYEIYSNLFKSWSGTIHTSLYEPNSLIAWMALGQNSHPTSINFSNWLKGKKLNINYFEGEIDTPLTFATYLEHHHHHH | not soluble
MQLDTIHKITGTLILKSGLHIGAGDSEMRIGGTDSPVVKDPLTDQPYIPGSSLKGKIRSLLEWRHGLVVATGGAPYSFKHLAQDENNSAGRDVIKLFGGAPDKAEDQLVKNIGPTRLAFWDCPLNGDWKKEAADSRHLLTTEVKSENSINRIAGTAEHPRFIERVIAGARFDFTLTLKVLEGDDLLNTVLLGLRLLELDSLGGSGSRGYGKIKFAELKLDGTDLMEQFHAITPFNQTA | not soluble
MQLGISKEQAGTVIGGLAGVAIGSTMGSGNGKIAAALIAGGIGAYVGNRIGHMLDEKDQQALALRTQEVLSQQQTTASAQPVTWKSDHSGATAQIVPGKEYTKTKQVEVKRAPKIQAVPSMKLINEPYVTISDNLNVRAAPNQAGEKVGSLKNHTEFTAVGSTGDWILVGRKGVTVGYVHKNYVEPKAQAVAKRVTPAVNLDELDVAASKETQGFDLDSVQSLPTQTVAAEAACRPVTVSLKSLEHHHHHH | soluble
MQLKVPEHQVAGHIAKDGKPGPLVDDKGRFFKPLQGDSRGEIEVKFYESFSSNTEVPEHIHRYFPVYHGTQAVEGSDGAAMMVLENLLAEYTKPSVMDVKMGSRTWYPDASEEYIQKCLKKDTGTTTVSSGFRISGFEVYDHKESSFWKPERKLLRGLDVDGARLTLRKFVSSNSLSDTGSKPDSAFASSVYGGSHGILTQLLELKTWFENQTLYHFNSCSILMVYENESILKGNDDDARPQVKLVDFAHVLDGNGVIDHNFLGGLCSFINFIREILQSPDESADS | soluble
MQMDGSKHMGTGAADAPFYLAQGDECDIFTAAYDNNLPVLLKGPTGCGKTRFVAHMAAKLGRPLYTVACHDDLAAADLIGRYLLKGGETVWVDGPLTRAVREGAICYLDEVVEARKDVTVVLHPLTDDRRILPIDRTGEELEAMPGFMLVASYNPGYQNILKTLKPSTRQRFISLEFDFPAPELEARVVSQESGLPLERCKPLIRLAGKLRGLKGQDLEEGVSTRLVVYAATLIAQGMPTERAILAAMVEPLTDDEDIKRGLLDLTTAVFGLEHHHHHH | not soluble
MQMISRITTGISMQYGLSNGTITFDDLIPELLHFGTITPTQISAITTDKLTEIVDGINGLQRKLDSSSEQLEEQLMMFASVYEKTKGVVPGSIIPKDDVYKTQLDALKIKWSKVDSFAKGIVIFLNEMESMEGVTSDDDANIKLSDMAPHLPKFKDWTLEEYNVYAQNQHLRNIHISYPSLNLVYKAVAEFFPYKNSLDGSLLPQVQENINKLNTLAEKIKPEAPMISQLHELFLSRSLKKSVNFKIISGLLNGISDIQMIFTDLKNEWVNKTVDGQAYNLGKALNQLKTLGNNAQQVDLSIVPVEEKIFKDVSNLYQKVNSLKDLTVIVRPLIGTVTGIEIPQSAIRIPAIDVIGQLIDKMKLLSSKLAALEILVHLSKTLRSAKNTIKLEKMKNITTAAEGKLELFKKSSDFKDIYKLILPAKKAAQKLKEAPTITETVTKIQTSFGNLTTFVDDLKSFLDDIKFLENIKGIDSLKPVIEVIRDYRDPKLFKKVDLSTLIGHLPKLKSTLKVLGDYIKGIKTSKHMETEALSTFTNISVGSQVVGMATRGITNMQMMSSQTVDLKIVKELKAVIDEEMKKHQLNPSDVKNLNSLDGLEDELNRIKTAISDFKKSVKPVKSFKLSNYSGFFQDAKKVPGIKINLPAIIGSVEKLKDRLSTRRRRSASASQLDTLLSLLRSLQIYDSAKFSKAFDDSAKSLQALDTSFTAYSKATSKLQGQKGSQSPRSPGSSPTKELSFLENDGEEFKITHHQVLDWNGLNALEDHRGAGLAAMFLMKYETTAIVHCVDGVSRSAVLAGMIIGFQKIIETRGDMNVADLIDDLRKQRAMAITSGLELAFVDAGIFLLFKRMMNNFEEEYPEDLKQMLKDAVQYYKLIAGYQVQQRDNYFKKLDNMGKKQMNQKKSTEEGVDKSKEQGKDATVMKEKSPLAKVN | not soluble
MQNAIKTDASNSTVEARDEEPVAANDNKPASNPGTSVTEDSVAYIFASTYRDTLRFCHSTGAWFEWDGSYWRRNEVGLAAHHVRVMARDMSQGLSPKALATIRKRSFASGVEGFARNDPTFAVTIEAWDRDPFLLGTPDGTVDLRTGKMRAADPADGITKLTSTAPSAQADCPLWLRFLQDATGGDGEMIRFLQQWCGYCLTGDTREHALVFVHGDGGNGKSVFLNTTSYILHDYATTASMDTFVASRSDRHPTDLAMLRGARLVSASETEEGRAWAESRIKQMTGGDAISARFMRQDFFTFQPQFKLFVVGNHQPALHSVDAAARRRFNIVPFTRKPTKPDRELEAKLRGEAPAILRWMVDGCRDWQRNGLVRPASIVEATETYFAEQDTFGQWLKDACRVEPDNRSISDFVADLFKSWTDYAEASGERPGSQKGFVQSLTKSGFKKGQRVRGGQLYIGLQLLRQAEKEPSVRDLEHHHHHH | soluble
MQNHVISLASAAERRAHIAATFGVRGIPFQFFDALMPSEELNRMMAELVPGLAKQHLLSEVEKACFMSHAVLWKQALDEGLPYVAVFEDDVLLGKDAEKFLAEDTWLEERFDKDSAFIVRLETMFAKVIVRPDKVLNYENRSFPLLESEHWGTAGYIISREAMRFFLERFAVLPAEWIKAVDWMMFTYFFDKEGMPVYQVNPALCTQELHYAKFLSKNSMLGSDLEKDREQERRHRRSLKVMFDLKRALGKFGREKKKRMERQRQAELEKAYGRRVISFK | not soluble
MQNIHKIKQDMCDIGRRIYNRQFAAANDGNITVRVSENEVLCTPTMHCKGYLTPDDISMIDMTGKQIAGRKKRSSEALLHLEIYKQRADIKSVVHCHPPHATAFAIAREPIPQCILPEVEVFLGDVPITKYETPGGQAFADTIIPFVEKTNVMILANHGTVSYGESVERAYWWTEILDSYCRMLLLAKQLGNVSYLDETKSRELLELKDKWGFKDPRNTSEYEDCDICANDIFRDSWKDSGVERRAFAPPPPIKTSGSASSAPAGVDEEQLVKLITNEVMRQMKASS | not soluble
MQPKLIILRGNSGSGKTTIANALHQCLKEQSLLISQDVVRREMLRVKDETGNLSIALLKQLVAFGYQECQYVIVEGIFQKAIYHSFFQEIIHLFEGNVQVYYFDISFEETLKRHSQRNKNQEFGVVEMKRWWLPEDYLGFPGEQRLSEQLSEKQIIRQILADIQ | not soluble
MQQHEIRRFVERYFAANGCTFVEASDDYLTVQLTAEMDKELMNRPFYWHYIERTGGVPQPMRLTLITRASERTDKLKGERLHFGAPRLHQLFRSAQKRGSFIRLYEEPNAPLDGNAALHPWLGMNVTISYECDRKKDEIVSLGLHLISGTIVESFHERMRERRLTPKIPDYCFTISPLIKPRSGIGRLEQYIRSRIAADNHAWADEARRRWADDLALLDEFYKDCEEKPECYYIEKEALEKQYKPRITVSVINGGLFYLLPRSS | not soluble
MQRERTAESSLRVISKEKNSITVEMINYDNTLLRTLVEEILKDDQVDEARYYIKHPVIDNPQIYVRVKSGKPQSAIKRAVRKLSKLYEDLGTQFQKEFQRYESDHMIKAVE | soluble
MQRIRIIDSHTGGEPTRLVIGGFPDLGQGDMAERRRLLGERHDAWRAACILEPRGSDVLVGALLCAPVDPEACAGVIFFNNSGYLGMCGHGTIGLVASLAHLGRIGPGVHRIETPVGEVEATLHEDGSVSVRNVPAYRYRRQVSVEVPGIGRVSGDIAWGGNWFFLVAGHGQRLAGDNLDALTAYTVAVQQALDDQDIRGEDGGAIDHIELFADDPHADSRNFVLCPGKAYDRSPCGTGTSAKLACLAADGKLLPGQPWRQASVIGSQFEGRYEWLDGQPGGPIVPTIRGRAHVSAEATLLLADDDPFAWGIRR | soluble
MQRKLATWAATDPSLRIQRLLRLITQPEWLAEAARITLSSKGAHTPGVDGVNKTMLQARLAVELQILRDELLSGHYQPLPARRVYIPKSNGKLRPLGIPALRDRIVQRAMLMAMEPIWESDFHTLSYGFRPERSVHHAIRTVKLQLTDCGETRGRWVIEGDLSSYFDTVHHRLLMKAVRRRISDARFMTLLWKTIKAGHIDVGLFRAASEGVPQGGVISPLLSNIMLNEFDQYLHERYLSGKARKDRWYWNNSIQRGRSTAVRENWQWKPAVAYCRYADDFVLIVKGTKAQVEAIREECRGVLEGSLKLRLNMDKTKIPHVNDGFIFLGHRLIRKRSRYGEMRVVSTIPQEKARNFAASLTALLWKVRISGEILLGLEHHHHHH | not soluble
